The record followed here is patent US20220105122A1 (UNIVERSITY OF TOKYO, published 2022).

The labels stand for the following.
T1: human HVEM (Herpes Virus entry mediator) expressed on HEK293T cells (human, UniProt Q92956 39-283)
T1 construct: whole, on cells; In the cell ELISA the HVEM-introduced HEK293T cells were fixed with 4% paraformaldehyde; in the reporter assay live HVEM-expressing HEK293T cells were used; also called TNFRSF14; HVEM/TNFRSF14
T1 sequence (looked up): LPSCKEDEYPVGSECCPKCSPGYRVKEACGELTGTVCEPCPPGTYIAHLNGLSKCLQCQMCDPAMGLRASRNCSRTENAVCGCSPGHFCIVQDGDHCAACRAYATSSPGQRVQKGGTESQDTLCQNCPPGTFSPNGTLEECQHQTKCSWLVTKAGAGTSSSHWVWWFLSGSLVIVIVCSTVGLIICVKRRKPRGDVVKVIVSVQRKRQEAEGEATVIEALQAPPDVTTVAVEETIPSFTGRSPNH

B1: anti-human HVEM alpaca VHH antibody #1 (VHH)
VHH: QVQLVESGGGLVQPGGSLRLSCAASGFTFSTHAMSWYRQAPGKERELVAHISSTGGSTNYADSVKGRFTISRDNAKNTVYLQMNSLKPEDTAVYRCNARDWYEYWGRGTQVTVSS
notes: Tested as VHH with a 6xHis tag; also called VHH #1; not shown: 6xHis tag added for the assay
B2: anti-human HVEM alpaca VHH antibody #3 (VHH)
VHH: QVQLVESGGGSVQPGGSLRLSCAASGSIGSIHRWDWYRLCPGKQREWVATLNSEGGPTYADSVEGRFTISRDNAKNMVYLQMNSLKPEDTAVYRCSARTVPFEYWGRGTQVTVSS
notes: Tested as VHH with a 6xHis tag; also called VHH #3; VHH(I); not shown: 6xHis tag added for the assay
B3: anti-human HVEM alpaca VHH antibody #4 (VHH)
VHH: QVQLVESGGGLVQPGGSLRLSCAAAESMLSPYSMGWYRLPPGKQRELVASLGSGGRTTYADSVKGRFTISRDNAKNTAYLQMNSLKPEDTAVYRCNIRELLGRRYEYWSQGTQVTVSS
notes: Tested as VHH with a 6xHis tag; also called VHH #4; not shown: 6xHis tag added for the assay
B4: anti-human HVEM alpaca VHH antibody #2 (VHH)
VHH: QVQLVESGGGLVQPGGSLRLSCVASGRLFDTYTMAWYRLPPGKQRELVADISRTGFTNYADSVKGRFTISRDNAKNTVYLQMNSLKPDDTAHYRCKVREPATMYEYWGQGTQVTVSS
notes: Tested as VHH with a 6xHis tag; also called VHH #2; VHH(II); not shown: 6xHis tag added for the assay
B5: anti-human HVEM alpaca VHH antibody #5 (VHH)
VHH: QVQLVESGGGLVQPGGSLRLSCAASGFTFSSSHMTWVRQAPGKGLEWVSLINSSGRTAYVDSVAGRFTISRDNAKNTLYLQMTNLKPEDTAVYYCSKGGWDGLPSSSIRGQGTQVTVSS
notes: Tested as VHH with a 6xHis tag; also called VHH #5; not shown: 6xHis tag added for the assay

This test addresses T1, human HVEM (Herpes Virus entry …). Put plainly: cell ELISA on fixed HVEM-expressing HEK293T cells, His-tagged VHH detected with anti-His-tag mAb-HRP. The source says:
The VHH antibodies prepared in the above item (1) were used to measure whether the VHH antibodies were detected in HVEM on the surface of the HVEM-expressing HEK293T cell membrane. Specifically, the HEK293T cells introduced with HVEM and the HEK293T cells not expressing HVEM as a negative control were each seeded at 1×10⁴ cells/well, fixed with 4% paraformaldehyde, and then reacted with the VHH antibodies added with 6×His tag. The horseradish peroxidase HRP-labeled anti-histidine tag antibody anti-His-tag mAb-HRP-DirecT (MBL) was reacted, and ELISA POD Substrate TMB Kit (Nacalai Tesque, Inc.) was used to measure an enzyme reaction of HRP with the substrate. The effect size data obtained for the antibody concentration was subjected to non-linear regression to a sigmoid curve based on the following formula: […]
What is called EC50 is the concentration at which the effect is half-maximal. For B1, the concentration giving a half-maximal response (EC50) was below 80 nM.

For the molecule B2, the EC50 is below 80 nM. Turning to B3, the EC50 was below 80 nM.

The molecule B4 gave an EC50 below 80 nM. B5 returned an EC50 below 80 nM.
